Data on two molecules can be found in PMC8855348.

In the data set the target is T1, RAD51AP1 WT (UniProt Q96B01 1-352).
T1 sequence: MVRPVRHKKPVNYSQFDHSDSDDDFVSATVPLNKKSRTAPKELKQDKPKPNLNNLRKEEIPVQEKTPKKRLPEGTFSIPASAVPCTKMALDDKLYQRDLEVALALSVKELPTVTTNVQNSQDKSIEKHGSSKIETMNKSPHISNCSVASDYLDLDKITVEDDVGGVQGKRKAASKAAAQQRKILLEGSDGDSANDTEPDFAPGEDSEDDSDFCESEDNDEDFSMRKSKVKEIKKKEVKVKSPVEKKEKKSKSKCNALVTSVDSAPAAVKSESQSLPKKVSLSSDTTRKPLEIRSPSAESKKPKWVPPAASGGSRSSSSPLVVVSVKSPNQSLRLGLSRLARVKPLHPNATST
Nature of the data set: EMSA.

B1: 63-nt ssRNA (ssRNA)
RNA: AACUUGGUCUGACAGUUACCAAUGCUUAAUCAGUGAGGCACCUAUCUCAGCGAUCUGUCUAUU
Consider B1, for which the binding result is recorded as “binds”.

B2: 50-nt DNA-RNA hybrid (DNA:RNA)
DNA: ATCATCACCATAACGTCGATGTATCAACTTCGATTAGTCACACCAATTAA
RNA: UUAAUUGGUGUGACUAAUCGAAGUUGAUACAUCGACGUUAUGGUGAUGAU
With B2, the binding result is on record as “binds”.
